In general, EC50 refers to the concentration that produces a half-maximal response. Low values mean an effect from little substance, high ones a need for much substance. By Kd is commonly meant a measure of binding affinity in units of concentration. The low end stands for tighter binding, the high end for weaker binding. The koff is a measure of how fast the partners let go of each other. In general, kon refers to the rate constant with which the complex forms.

The target of assay [1] is T1, Western Reserve B5 on cells infected with VVddeGFP Western Reserve virus (Vaccinia virus, Western Reserve strain, UniProt Q01227 18-317).
T1 construct: also called VV B5; WR
As to the kind of experiment: flow cytometry, SKOV3 cells infected with WR VV. For orientation: Flow cytometry measures light scatter and fluorescence of single cells or particles in a stream.

Assay [2] concerns the target T2, VV B5 monomer protein (Wyeth Vaccinia strain B5 with C-terminal AVI tag and HIS6 tag) (Vaccinia virus, Wyeth strain, UniProt O57254 18-279).
T2 construct: also called B5 protein; VV B5 protein
The experiment in a line: BLI (Octet), antibody on AHC sensor, B5 monomer analyte. On the technique in general: BLI is a label-free optical method that tracks binding on a fibre tip over time.

For assay [3], the target named is T1, Western Reserve B5 on cells infected …. The experiment in a line: flow cytometry, HT29 cells infected with WR VV.
For assay [4], the target named is T2, VV B5 monomer protein (Wyeth Vaccinia …). As to the kind of experiment: ELISA, B5 monomer coated.
Assay [5] addresses T3, Copenhagen B5 on cells infected with VVCopenhagen (YFP) virus (Vaccinia virus, Copenhagen strain, UniProt P21115 18-317).
T3 construct: also called VV B5
As to the kind of experiment: flow cytometry, HT29 cells infected with Copenhagen VV.

B1: A048 parental (antibody, V domains shown)
VH: QEQLEESGGGLVKPEGSLTLTCTASGFSFSSSYYMCWVRQAPGRGLEWIACIYTSSGSAYYANWAKGRFTISRTSSTTVTLQMTRLTAADTATYFCVRNAVGSSYYLYLWGPGTLVTVSS
VL: AQVLTQTPSPVSAAVGGTVTISCQASQSVAGNNYLSWYQQKPGQPPNLLIYSVSTLASGVPSRFKGSGSGTQFTLTISDLECDDAATYYCQGYYNDGIWAFGGGTEVVVK
notes: also called A048 rabbit parental antibody; A048 parental anti-B5 hIgG1
For the molecule B1, the EC50 in assay [1] was determined as 3.98 nM; in assay [3], 3.51 nM; in assay [4] it was 0.116 nM; in assay [5] it was 1.08 nM. Binding in assay [2] was put at a Kd of 9.51 nM. Further, the off-rate constant (koff) in assay [2] is 0.000601 s⁻¹. The molecule also gave a kon in assay [2] of 62400 M⁻¹ s⁻¹.

B2: A048-H3L1 (antibody, V domains shown)
VH: EVQLLESGGGLVQPGGSLRLSCAASGFSFSSSYYMCWVRQAPGKGLEWIACIYTSSGSAYYADSVKGRFTISRDNSKNTLYLQMNSLRAEDTAVYYCVRNAVGSSYYLYLWGQGTLVTVSS
VL: DIQMTQSPSTLSASVGDRVTITCQASQSVAGNNYLSWYQQKPGKAPKLLIYSVSTLASGVPSRFSGSGSGTEFTLTISSLQPDDFATYYCQGYYNDGIWAFGQGTKVEIK
Regarding B2, the concentration giving a half-maximal response (EC50) in assay [1] was found to be 0.94 nM; in assay [3], 0.86 nM; in assay [4] it was 0.0854 nM; in assay [5], 0.89 nM. For the same molecule, in assay [2], the Kd is 4.37 nM. Besides, the dissociation rate constant (koff) in assay [2] was 0.000468 s⁻¹. This molecule also showed an association rate constant (kon) in assay [2] of 107000 M⁻¹ s⁻¹.

B3: A048-H2L1 (antibody, V domains shown)
VH: EVQLLESGGGLVQPGGSLRLSCAASGFSFSSSYYMCWVRQAPGKGLEWIACIYTSSGSAYYANWAKGRFTISRTSSTTVTLQMNSLRAEDTAVYYCVRNAVGSSYYLYLWGQGTLVTVSS
VL: DIQMTQSPSTLSASVGDRVTITCQASQSVAGNNYLSWYQQKPGKAPKLLIYSVSTLASGVPSRFSGSGSGTEFTLTISSLQPDDFATYYCQGYYNDGIWAFGQGTKVEIK
Consider B3, for which the EC50 turned out to be 0.53 nM in assay [1], 1.37 nM in assay [3], 0.0969 nM in assay [4] and 1.48 nM in assay [5]. In assay [2], this molecule gave a Kd of 7.21 nM. In assay [2], this molecule showed an off-rate constant (koff) of 0.000672 s⁻¹. The on-rate (kon) in assay [2] is 93000 M⁻¹ s⁻¹.

B4: A048-H4L1 (antibody, V domains shown)
VH: EVQLLESGGGLVQPGGSLRLSCAASGFSFSSSYYMCWVRQAPGKGLEWIACIYTSSGSAYYADSVKGRFTISRTSSTTVTLQMNSLRAEDTAVYYCVRNAVGSSYYLYLWGQGTLVTVSS
VL: DIQMTQSPSTLSASVGDRVTITCQASQSVAGNNYLSWYQQKPGKAPKLLIYSVSTLASGVPSRFSGSGSGTEFTLTISSLQPDDFATYYCQGYYNDGIWAFGQGTKVEIK
Take B4: the EC50 in assay [1] was 0.88 nM; in assay [3], 2.77 nM; in assay [4] it was 0.0953 nM; in assay [5], 1.34 nM. For the same molecule, the affinity in assay [2], expressed as Kd, was 6.72 nM. Further, the koff in assay [2] was determined as 0.000478 s⁻¹. For the same molecule, the kon in assay [2] is 71000 M⁻¹ s⁻¹.

B5: A048-H2L3 (antibody, V domains shown)
VH: EVQLLESGGGLVQPGGSLRLSCAASGFSFSSSYYMCWVRQAPGKGLEWIACIYTSSGSAYYANWAKGRFTISRTSSTTVTLQMNSLRAEDTAVYYCVRNAVGSSYYLYLWGQGTLVTVSS
VL: DIQMTQSPSSLSASVGDRVTITCQASQSVAGNNYLSWYQQKPGKVPKLLIYSVSTLASGVPSRFSGSGSGTDFTLTISSLQPEDVATYYCQGYYNDGIWAFGQGTKVEIK
Turning to B5, the EC50 in assay [1] is 0.55 nM; in assay [3], 1.73 nM; in assay [4], 0.0515 nM; in assay [5] it was 0.77 nM. The molecule further displayed a dissociation constant (Kd) in assay [2] of 9.23 nM. The dissociation rate constant (koff) in assay [2] is 0.000759 s⁻¹. Also, the on-rate (kon) in assay [2] amounted to 82100 M⁻¹ s⁻¹.

B6: A048-H3L4 (antibody, V domains shown)
VH: EVQLLESGGGLVQPGGSLRLSCAASGFSFSSSYYMCWVRQAPGKGLEWIACIYTSSGSAYYADSVKGRFTISRDNSKNTLYLQMNSLRAEDTAVYYCVRNAVGSSYYLYLWGQGTLVTVSS
VL: AQVLTQSPSSLSASVGDRVTITCQASQSVAGNNYLSWYQQKPGKVPKLLIYSVSTLASGVPSRFSGSGSGTDFTLTISSLQPEDVATYYCQGYYNDGIWAFGQGTKVEIK
On to B6, for which the half-maximal effective concentration (EC50) in assay [1] was 1.28 nM; in assay [3] it was 3.78 nM; in assay [4], 0.106 nM; in assay [5] it was 1.96 nM. In assay [2], this molecule returned a Kd of 8.57 nM. The molecule also came in with a koff in assay [2] of 0.000722 s⁻¹. Moreover, the kon in assay [2] amounted to 84100 M⁻¹ s⁻¹.

B7: A048-H1L3 (antibody, V domains shown)
VH: EVQLLESGGGLVQPGGSLRLSCAASGFSFSSSYYMCWVRQAPGKGLEWIACIYTSSGSAYYANWAKGRFTISRDNSKNTLYLQMNSLRAEDTAVYYCVRNAVGSSYYLYLWGQGTLVTVSS
VL: DIQMTQSPSSLSASVGDRVTITCQASQSVAGNNYLSWYQQKPGKVPKLLIYSVSTLASGVPSRFSGSGSGTDFTLTISSLQPEDVATYYCQGYYNDGIWAFGQGTKVEIK
As for B7, the concentration for a half-maximal effect (EC50) in assay [1] turned out to be 1.2 nM; in assay [3], 3.48 nM; in assay [4], 0.0802 nM; in assay [5], 1.88 nM. In assay [2], this molecule had a dissociation constant (Kd) of 8.76 nM. Besides, in assay [2], the dissociation rate constant (koff) stood at 0.000846 s⁻¹. This molecule also registered an on-rate constant (kon) in assay [2] of 96400 M⁻¹ s⁻¹.

B8: A048-H2L2 (antibody, V domains shown)
VH: EVQLLESGGGLVQPGGSLRLSCAASGFSFSSSYYMCWVRQAPGKGLEWIACIYTSSGSAYYANWAKGRFTISRTSSTTVTLQMNSLRAEDTAVYYCVRNAVGSSYYLYLWGQGTLVTVSS
VL: AQVLTQSPSTLSASVGDRVTITCQASQSVAGNNYLSWYQQKPGKAPKLLIYSVSTLASGVPSRFSGSGSGTEFTLTISSLQPDDFATYYCQGYYNDGIWAFGQGTKVEIK
With B8, the concentration for a half-maximal effect (EC50) in assay [1] is 0.8 nM; in assay [3], 1.71 nM; in assay [4], 0.0914 nM; in assay [5], 1.28 nM. The same molecule displayed a Kd in assay [2] of 7.91 nM. For the same molecule, the koff in assay [2] worked out at 0.000698 s⁻¹. In assay [2], this molecule had a kon of 88100 M⁻¹ s⁻¹.

B9: A048-H2L4 (antibody, V domains shown)
VH: EVQLLESGGGLVQPGGSLRLSCAASGFSFSSSYYMCWVRQAPGKGLEWIACIYTSSGSAYYANWAKGRFTISRTSSTTVTLQMNSLRAEDTAVYYCVRNAVGSSYYLYLWGQGTLVTVSS
VL: AQVLTQSPSSLSASVGDRVTITCQASQSVAGNNYLSWYQQKPGKVPKLLIYSVSTLASGVPSRFSGSGSGTDFTLTISSLQPEDVATYYCQGYYNDGIWAFGQGTKVEIK
On to B9, for which the EC50 amounted to 0.69 nM in assay [1], 1.68 nM in assay [3], 0.0844 nM in assay [4] and 2.85 nM in assay [5]. For the same molecule, binding in assay [2] was put at a Kd of 6.23 nM. The same molecule yielded an off-rate constant (koff) in assay [2] of 0.000512 s⁻¹. Moreover, in assay [2], the kon was 81600 M⁻¹ s⁻¹.

B10: A048-H3L3 (antibody, V domains shown)
VH: EVQLLESGGGLVQPGGSLRLSCAASGFSFSSSYYMCWVRQAPGKGLEWIACIYTSSGSAYYADSVKGRFTISRDNSKNTLYLQMNSLRAEDTAVYYCVRNAVGSSYYLYLWGQGTLVTVSS
VL: DIQMTQSPSSLSASVGDRVTITCQASQSVAGNNYLSWYQQKPGKVPKLLIYSVSTLASGVPSRFSGSGSGTDFTLTISSLQPEDVATYYCQGYYNDGIWAFGQGTKVEIK
B10: the concentration for a half-maximal effect (EC50) in assay [1] came to 0.83 nM; in assay [3], 1.81 nM; in assay [4] it was 0.0979 nM; in assay [5], 1.03 nM. This molecule also yielded a Kd in assay [2] of 7.71 nM. Besides, the koff in assay [2] was 0.000733 s⁻¹. In addition, the association rate constant (kon) in assay [2] is 94900 M⁻¹ s⁻¹.

B11: A048-H1L4 (antibody, V domains shown)
VH: EVQLLESGGGLVQPGGSLRLSCAASGFSFSSSYYMCWVRQAPGKGLEWIACIYTSSGSAYYANWAKGRFTISRDNSKNTLYLQMNSLRAEDTAVYYCVRNAVGSSYYLYLWGQGTLVTVSS
VL: AQVLTQSPSSLSASVGDRVTITCQASQSVAGNNYLSWYQQKPGKVPKLLIYSVSTLASGVPSRFSGSGSGTDFTLTISSLQPEDVATYYCQGYYNDGIWAFGQGTKVEIK
For B11, the EC50 turned out to be 0.44 nM in assay [1], 0.68 nM in assay [3], 0.102 nM in assay [4] and 0.98 nM in assay [5]. In assay [2], the Kd turned out to be 12 nM. Further, the koff in assay [2] was 0.000953 s⁻¹. Moreover, in assay [2], the on-rate (kon) came to 79400 M⁻¹ s⁻¹.

B12: A048-H1L2 (antibody, V domains shown)
VH: EVQLLESGGGLVQPGGSLRLSCAASGFSFSSSYYMCWVRQAPGKGLEWIACIYTSSGSAYYANWAKGRFTISRDNSKNTLYLQMNSLRAEDTAVYYCVRNAVGSSYYLYLWGQGTLVTVSS
VL: AQVLTQSPSTLSASVGDRVTITCQASQSVAGNNYLSWYQQKPGKAPKLLIYSVSTLASGVPSRFSGSGSGTEFTLTISSLQPDDFATYYCQGYYNDGIWAFGQGTKVEIK
Turning to B12, the EC50 in assay [1] amounted to 0.76 nM; in assay [3], 2.2 nM; in assay [4] it was 0.0717 nM; in assay [5], 0.77 nM. For the same molecule, in assay [2], the affinity, expressed as Kd, was 9.71 nM. In assay [2], this molecule gave a koff of 0.000764 s⁻¹. In addition, in assay [2], the kon worked out at 78600 M⁻¹ s⁻¹.

B13: A048-H4L2 (antibody, V domains shown)
VH: EVQLLESGGGLVQPGGSLRLSCAASGFSFSSSYYMCWVRQAPGKGLEWIACIYTSSGSAYYADSVKGRFTISRTSSTTVTLQMNSLRAEDTAVYYCVRNAVGSSYYLYLWGQGTLVTVSS
VL: AQVLTQSPSTLSASVGDRVTITCQASQSVAGNNYLSWYQQKPGKAPKLLIYSVSTLASGVPSRFSGSGSGTEFTLTISSLQPDDFATYYCQGYYNDGIWAFGQGTKVEIK
For B13, the concentration giving a half-maximal response (EC50) in assay [1] was 0.71 nM; in assay [3], 6.59 nM; in assay [4] it was 0.107 nM; in assay [5] it was 1.78 nM. This molecule also had a dissociation constant Kd in assay [2] of 7.69 nM. Besides, the off-rate (koff) in assay [2] amounted to 0.000481 s⁻¹. Further, in assay [2], the association rate constant (kon) came out at 62400 M⁻¹ s⁻¹.

The record behind these values is US20240309070A1 (ADMARE THERAPEUTICS SOCIETY, published 2024).
